Assay results published in publication PMC7769458, “In vitro and in vivo characterization of Recifercept, a soluble fibroblast growth factor receptor 3, as treatment for achondroplasia” (PLoS ONE, 2020).

Tests used:
Conditions in all cases: both partners purified
[1] = molecular target: human FGF9 (human, UniProt P31371 4-208); test: SPR; Biacore T200; Recifercept amine-coupled on a CM5 chip (about 400 RU); hFGF injected in HBS-EP (0.01 M HEPES, 0.15 M NaCl, 3 mM EDTA, 0.05% polysorbate 20, pH 7.4) at 50 ul/min; single cycle kinetics, 5 concentrations from 0 to 16 nM; global 1:1 fit; triplicate
[2] = molecular target: T1, human FGF2 (human, UniProt P09038 143-288); test: as above
T1 construct: fibroblast growth factor 2, human, recombinant; also called hFGF2; source: recombinant; bought: Peprotech for the cell assays
T1 sequence (P09038 143-288): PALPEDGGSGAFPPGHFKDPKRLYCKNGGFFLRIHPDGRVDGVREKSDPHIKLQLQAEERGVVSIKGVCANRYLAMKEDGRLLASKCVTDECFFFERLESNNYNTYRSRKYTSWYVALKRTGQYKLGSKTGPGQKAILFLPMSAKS

[3] = molecular target: T2, human FGF16 (human, UniProt O43320 1-207); test: as above
T2 construct: fibroblast growth factor 16, human, recombinant; also called hFGF16; source: recombinant

[4] = molecular target: T3, human FGF20 (human, UniProt Q9NP95 1-211); test: as above
T3 construct: fibroblast growth factor 20, human, recombinant; also called hFGF20; source: recombinant
T3 sequence (Q9NP95 whole entry): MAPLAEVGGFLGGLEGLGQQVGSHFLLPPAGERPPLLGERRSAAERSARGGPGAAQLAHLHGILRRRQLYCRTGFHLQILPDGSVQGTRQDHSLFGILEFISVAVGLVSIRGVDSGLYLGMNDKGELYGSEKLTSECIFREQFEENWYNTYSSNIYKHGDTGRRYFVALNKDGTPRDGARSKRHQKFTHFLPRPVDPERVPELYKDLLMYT

[5] = molecular target: T4, human FGF1 (human, UniProt P05230 16-155); test: as above
T4 construct: fibroblast growth factor 1, human, recombinant; also called hFGF1; source: recombinant; bought: Peprotech for the cell assays
T4 sequence (P05230 16-155): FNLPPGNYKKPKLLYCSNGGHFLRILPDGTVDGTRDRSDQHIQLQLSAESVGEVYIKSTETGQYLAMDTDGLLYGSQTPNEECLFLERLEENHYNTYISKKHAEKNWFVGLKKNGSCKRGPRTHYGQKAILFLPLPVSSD

[6] = molecular target: T5, human FGF17 (human, UniProt O60258 23-216); test: SPR; as a1 (Recifercept amine-coupled on a CM5 chip, hFGF in HBS-EP, single cycle kinetics, 0 to 16 nM, 1:1 fit, triplicate) but with 16 nM heparin in each tested concentration (FGF8 subfamily)
T5 construct: fibroblast growth factor 17, human, recombinant; also called hFGF17; source: recombinant
T5 sequence (looked up): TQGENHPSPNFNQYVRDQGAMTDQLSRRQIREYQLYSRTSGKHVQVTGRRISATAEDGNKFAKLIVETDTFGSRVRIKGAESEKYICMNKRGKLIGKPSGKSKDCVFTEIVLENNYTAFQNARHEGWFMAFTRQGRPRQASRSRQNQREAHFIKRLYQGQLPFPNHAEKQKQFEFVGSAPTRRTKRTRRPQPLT

[7] = molecular target: human FGF8 (human, UniProt P55075 23-233, Isoform, supplier and limits are not printed. Assumed the FGF8b isoform (mature 23-215), the usual commercial recombinant form and the one that binds FGFR3c; the P55075 canonical sequence is FGF8e. Th); test: as above
[8] = molecular target: T6, human FGF18 (human, UniProt O76093 28-207); test: as above
T6 construct: fibroblast growth factor 18, human, recombinant; also called hFGF18; source: recombinant
T6 sequence (looked up): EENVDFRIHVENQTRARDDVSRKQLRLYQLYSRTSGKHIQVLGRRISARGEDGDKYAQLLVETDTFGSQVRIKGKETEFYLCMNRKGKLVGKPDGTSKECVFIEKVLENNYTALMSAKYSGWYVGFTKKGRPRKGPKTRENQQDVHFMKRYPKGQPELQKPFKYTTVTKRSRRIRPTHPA

Kd [1]: 0.75 nM
koff [1]: 0.00133 s⁻¹
kon [1]: 1.83e+06 M⁻¹ s⁻¹
Kd [2]: 3.4 nM
koff [2]: 0.000898 s⁻¹
kon [2]: 279000 M⁻¹ s⁻¹
Kd [3]: 0.94 nM
koff [3]: 0.00253 s⁻¹
kon [3]: 2.8e+06 M⁻¹ s⁻¹
Kd [4]: 7.1 nM
koff [4]: 0.000548 s⁻¹
kon [4]: 123000 M⁻¹ s⁻¹
Kd [5]: 0.74 nM
koff [5]: 0.000904 s⁻¹
kon [5]: 1.33e+06 M⁻¹ s⁻¹
Kd [6]: 2.73 nM
koff [6]: 0.000964 s⁻¹
kon [6]: 390000 M⁻¹ s⁻¹
Kd [7]: 4.28 nM
koff [7]: 0.000705 s⁻¹
kon [7]: 171000 M⁻¹ s⁻¹
Kd [8]: 4.17 nM
koff [8]: 0.00105 s⁻¹
kon [8]: 270000 M⁻¹ s⁻¹
B1: Recifercept (receptor)
chain: ESLGTEQRVVGRAAEVPGPEPGQQEQLVFGSGDAVELSCPPPGGGPMGPTVWVKDGTGLVPSERVLVGPQRLQVLNASHEDSGAYSCRQRLTQRVLCHFSVRVTDAPSSGDDEDGEDEAEDTGVDTGAPYWTRPERMDKKLLAVPAANTVRFRCPAAGNPTPSISWLKNGREFRGEHRIGGIKLRHQQWSLVMESVVPSDRGNYTCVVENKFGSIRQTYTLDVLERSPHRPILQAGLPANQTAVLGSDVEFHCKVYSDAQPHIQWLKHVEVNGSKVGPDGTPYVTVLKTAGANTTDKELEVLSLHNVTFEDAGEYTCLAGNSIGFSHHSAWLVVLPVSLESNASMSSNT
notes: extracellular domain of human FGFR3 (P22607); also called soluble fibroblast growth factor receptor 3; modified soluble recombinant human FGFR3; source: GPEX CHO cell line, 50L single use bioreactor, media filtered, purified using chromatography
